This passage reports Km results from publication PMC11617674, “The activity of the ribonucleotide monophosphatase UmpH is controlled by interaction with the GlnK signaling protein in Escherichia coli” (The Journal of Biological Chemistry, 2024).

A word on the Km: it is the concentration of substrate that gives half-maximal velocity.

Substrate in this data set: O=c1ccn([C@@H]2O[C@H](COP(=O)(O)O)[C@@H](O)[C@H]2O)c(=O)[nH]1
The data set can be described thus: continuous phosphate release, EnzChek (MESG/purine nucleoside phosphorylase), A360, Michaelis-Menten fit. It counts as biochemical, Escherichia coli. The note with it: no GlnK, no effectors, 20 mM Hepes pH 7.4, 50 mM KCl, 5 mM MgCl2, 2 mM NAG, 2 mM DTT, 25 °C.

B1: UmpH (Escherichia coli K-12) (protein)
chain: MTIKNVICDIDGVLMHDNVAVPGAAEFLHGIMDKGLPLVLLTNYPSQTGQDLANRFATAGVDVPDSVFYTSAMATADFLRRQEGKKAYVVGEGALIHELYKAGFTITDVNPDFVIVGETRSYNWDMMHKAAYFVANGARFIATNPDTHGRGFYPACGALCAGIEKISGRKPFYVGKPSPWIIRAALNKMQAHSEETVIVGDNLRTDILAGFQAGLETILVLSGVSSLDDIDSMPFRPSWIYPSVAEIDVI
notes: untagged; synthetic umpH gene in pET29a, expressed in E. coli BL21 (λDE3); band approximately 30 kDa
Take B1: the Michaelis-Menten constant (Km) was determined as 278 ± 27 µM.
